For the data set, the system named is T1, His-CalR (Vibrio parahaemolyticus RIMD2210633), ORF:1a4fc32f.
T1 sequence: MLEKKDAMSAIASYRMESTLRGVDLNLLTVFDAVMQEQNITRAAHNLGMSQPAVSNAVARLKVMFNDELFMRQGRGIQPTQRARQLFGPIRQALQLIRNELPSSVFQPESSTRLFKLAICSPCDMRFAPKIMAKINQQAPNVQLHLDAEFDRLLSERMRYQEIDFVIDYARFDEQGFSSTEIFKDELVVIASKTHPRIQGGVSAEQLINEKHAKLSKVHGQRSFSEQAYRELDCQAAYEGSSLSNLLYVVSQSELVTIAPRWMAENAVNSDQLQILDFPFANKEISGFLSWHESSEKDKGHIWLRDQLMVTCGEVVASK
In words: DNase I footprinting. The conditions noted are these: 10 mM Tris-HCl pH 7.5, 50 mM NaCl, 1 mM MgCl2, 0.5 mM EDTA, 0.5 mM DTT, 10 mg/ml salmon sperm DNA (so in the source), room temperature, 20 min (EMSA) or 30 min (ToxR …). A general note: In EMSA bound probe runs differently from free probe, usually more slowly.

This note sets out measurements from paper PMC5630374.

As for “CAGGAAACAGCTATGACCGGCTTATATTTATTCTACAGATGGACAGCAATAACGTTCCACGTACAACACGTAATTAACATAGTATTTAATTTTTAAGATAACACAATTCTAATTCTTCATCGCTTGTCGATATAAACCAAAATCCCACCATAATAGAATTTAATAACCGTTAATCTTTATATGCACCAGCACTCATTTGTAAGATTAGAAGCAAGGAGTCAATTCTGGGTTTCCGGCCAAAATATAATAACTAACAACCAAAATTGATAAACACTGGCCGTCGTTTTAC (double strand) [exsB promoter, footprint fragment]”, the binding entry was “binds”.
